According to paper PMC12786276:

Target: CD47 (endogenously expressed in MDA-MB-231 cells) (human (endogenous in MDA-MB-231)) (UniProt Q08722)
UniProt Q08722, sequence (Q08722 19-323): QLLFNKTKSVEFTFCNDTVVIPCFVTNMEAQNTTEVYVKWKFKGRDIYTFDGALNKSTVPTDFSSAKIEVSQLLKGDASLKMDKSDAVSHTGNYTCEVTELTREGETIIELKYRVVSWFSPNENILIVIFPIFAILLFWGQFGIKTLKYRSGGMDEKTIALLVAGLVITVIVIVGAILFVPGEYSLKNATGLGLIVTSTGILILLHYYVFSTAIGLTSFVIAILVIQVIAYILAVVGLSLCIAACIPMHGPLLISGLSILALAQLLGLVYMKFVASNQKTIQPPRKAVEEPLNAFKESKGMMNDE

| Substance | phagocytosis of MDA-MB-231 cells by macrophages (flow cytometry) after PSFL-NK13 (4 µM, 48 h) [fold] |
| --- | --- |
| integrin αv subunit (endogenously expressed in MDA-MB-231 cells) (natural protein) | 3 |
| integrin β3 subunit (endogenously expressed in MDA-MB-231 cells) (from UniProt P05106 27-788) (natural protein) | 3 |
